From the nanobody polyreactivity screen of Harvey et al. (2022) come the findings set out here.

This data set in a line: yeast display, Sf9 membrane polyspecificity reagent, FACS + sequencing; frameworks hold sequencing errors. The procedure, abridged:
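Nanobodies came from a synthetic yeast display library in Saccharomyces cerevisiae BJ5465, induced with galactose for 36–48 hours and stained for 1 hour at 4 °C with 10% biotinylated, detergent-solubilized Sf9 membrane reagent. Cells were enriched on streptavidin microbeads and then FACS-sorted, with low and high (top ~1%) gates set on anti-HA fluorescence for expression and streptavidin fluorescence for reagent binding. Each polyreactivity label reflects the gate a clone came from. Genes were amplified by colony PCR, sequenced by MiSeq 2 × 250 and filtered by CDR length.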
With “QVQLVESGGRLVQAGGSLRLSCAASGLTFSSYAMGWYRQAPGKERQLVAAISRGGGSTYYADSVKGRFTISRDNAKNTGYLQMNSLKPEDTAVYYCAADSGFWWLYDYWGQGTHVTVSS”, the “polyreactivity (PSR sort gate)” value is on record as “high polyreactivity”.

Turning to “QVQLVESGGRLVQAGGSLRLSCAASGLTFVYNTMGWYSQAPGKERKLVAAISSSGGTTYYADSVKGRFTISRDNAKNTVYLQMNSLKPEDTAVYYCAARPSGGYESTRTRDYWGQGTQVTVSS”, the “polyreactivity (PSR sort gate)” value is “low polyreactivity”. Take “QVQLVESGGRLVQAGGSLRLSCAASGRIFATYAMGWYRQAPGKEWQLVAGITSGGRTNYADSVKGRFTISRDNAKNTVYLQMNSLKPEDTAVYYCDKRVWPRDQYGKRNPRMDYWGQGTQETVSS”: the “polyreactivity (PSR sort gate)” value is given as “high polyreactivity”. On to “QVQLVESGGRLVQAGGSLRLSCAASGRIFKYYAMGWYRPAPGKERELVAAINRDGGRTYYADSVKGRFTISRDTAKISVYLQMNSLKPEDTAVYYCAASYGYVYTTSLDYWGQGTQVTVSS”, for which the “polyreactivity (PSR sort gate)” value is “low polyreactivity”. To “QVQLVESGGRLVQAGGSLRLSCAASGRIFRRYAMGWYRQAPGKERELVAAISGSGGSTYYADSVKGRFTISRDNAKNTVYLQMNCLKPEDTAVYYCAARVGLGYDRLKSEYNYWGQGTQVTVSS” belongs “high polyreactivity”.

For “QVQLVESGGRLVQAGGSLRLSCAASGRIFSIYGMGWYRPAPGKERELVAVISGSVGITYYADSVKGRFTISRDNAKNTVYLQMNSLKPEDTAVYYCNAKVRRRKYDYWGQGTQVTVSS”, the “polyreactivity (PSR sort gate)” value is reported as “high polyreactivity”. “QVQLVESGGRLVQAGGSLRLSCAASGRIFTWYAMGWYRQAPGKERELVAAISWTGGTTYYADSVKGRFTISRVNAKNTVYLQMNSMKPEDTEVYYCNKVVGFRSNFGGYGYCGQGTQVTVSS”: the “polyreactivity (PSR sort gate)” value was “high polyreactivity”. In the case of “QVQLVESGGRLVQAGGSLRLSCAASGRIFWWNAMGWYRQAPGKERQFVAAISYRGGSTYYADSVKGRFTISRDNAKNTVYLQMNSLKPEDTAVYYCAADWTYVGPSYSYYYWGQGTQVTVSS”, the “polyreactivity (PSR sort gate)” value was “low polyreactivity”. To “QVQLVESGGRLVQAGGSLRLSCAASGRIFYNYSMGWYRQAPGKERELVATIRYRGGSTYYADSVKGRFTISRDNAKNTVYLQMNSLKPEDTAVYYCAARFNYNRDYPYYSWGQGTQVNVSS” belongs “high polyreactivity”; to “QVQLVESGGRLVQAGGSLRLSCAASGRNFGVNAMGWYRQAPGKERELVAAISVSGDSTYYADSVKGRFTISRDNAKNTVYLQMNSLKPEDTAVYYCNAGYTFVPADLTDEYYWGQGTQVTVSS”, “low polyreactivity”; to “QVQLVESGGRLVQAGGSLRLSCAASGRTFDYYDMGWYRQAPGKERELVAAITWGGGSTYYADSVKGRFSISRDNAKNTVYLQMNSLKPEDTAVYYCNADHFGWPWRVRIHEDDYWGQGTQVTVSS”, “low polyreactivity”. For the sequence “QVQLVESGGRLVQAGGSLRLSCAASGRTFGGYMGWYRQAPGKESELVAVISSGDSTNYADSVKGRFTITRDNAKNTVYLQMNSVKPEDSAVYYCIAYGSDRLTLDDFWGQGTQVTVSS”, the “polyreactivity (PSR sort gate)” value is “low polyreactivity”. To “QVQLVESGGRLVQAGGSLRLSCAASGRTFKKYAMGWYRQAPGKERELVAAITGSGGSTYYADSVKGRFTISRDNAKNTVYLQMNSLKPEDTAVYYCAAYAYGVWHSQDGGNFWGQGTQVTVSS” belongs “low polyreactivity”; to “QVQLVESGGRLVQAGGSLRLSCAASGRTFSAYAMGWYRPAPGKERELVARITSVDSTNYADSVKGRFTISRDNAKNTVYLQMNSPKPEDTAVYYCNATFGYPFVDYDDYWGQGTQVTVSS”, “low polyreactivity”; to “QVQLVESGGRLVQAGGSLRLSCAASGRTFTRNAMGWYRQAPGKERELVAAISWSGGSTYYADSVKGRFTISRDNAKNTVYLQMNSLKPEDTAVYYCAARIWYYNYWGQGTQVTVSS”, “high polyreactivity”. To “QVQLVESGGRLVQAGGSLRLSCAASGRTFTYYAMGWYRQATGKERELVARITTVGSSTYYADSVKGRFTISRDNAKNTVYLQMNSLKPEETAVYYCNADHLWYSLFDYWGQGTQVTVSS” belongs “high polyreactivity”. The entry for “QVQLVESGGRLVQAGGSLRLSCAASGRTFYRYAMGWYRQAPGKERELVAAITWSGGSTYYADSVKGRFTTSRDNAKNTVYLQMNSLKPEDTAVYYCAATKRRFVKFDYWGQGTQVTVSS” is “low polyreactivity”. Turning to “QVQLVESGGRLVQAGGSLRLSCAASGRTFYRYVMGWYRQAHGQVRELVAAISEGGGSTFYADSVKGRFTISRDNAKNTVYLQLNSLKPEDTAVYYCAADYYVRGGFFRYDYWGQGTQVTVSS”, the “polyreactivity (PSR sort gate)” value was “low polyreactivity”. “QVQLVESGGRLVQAGGSLRLSCAASGRTIGYYAMGWSRQAPGNEWELVAAISGSGGSTYYADSVKGRFTISRDNAKNTVYLQMNSLKPEDTAVYYCAATTQSRRYEYYYWGQGTQVTVSS”: the “polyreactivity (PSR sort gate)” value is reported as “high polyreactivity”.

Turning to “QVQLVESGGRLVQAGGSLRLSCAASGRTIRYNAMGWYRQAPGKERELVASISDGGSTNYADSVKGRFTISRDNAKNTVYLQMNSLKPEDTAVYYCALAGYRRYGYVYWGQGTQVTVSS”, the “polyreactivity (PSR sort gate)” value was “low polyreactivity”.

Turning to “QVQLVESGGRLVQAGGSLRLSCAASGSIFGYNAMGWYRQAPGKESELVAAIDKSGGNTYYADSVKGRFTISRDNANYTVYLQMNSLKPEDTAVDYCAVRAYRHRSGYSYGYWGQGTQVTVSS”, the “polyreactivity (PSR sort gate)” value is “high polyreactivity”. As for “QVQLVESGGRLVQAGGSLRLSCAASGSIFRSNAMGWYRQAPGKERELVATISSSTGSTYYADSVKGRFTISRDNAKNTVYLQMNSLKPEDTAVYNCAAVQPVKSSSGYHFWYYWGQGTQVTVSS”, the “polyreactivity (PSR sort gate)” value is “high polyreactivity”.

Turning to “QVQLVESGGRLVQAGGSLRLSCAASGSIFSKYTMGWYRQAPGKERELVAAISRAGSTYYADSVKGRFTISRDNAKNTVYLQMNSLKPEDTAVYYCNARYRGVYPLIGNRRDYYYWGQGTQVTVSS”, the “polyreactivity (PSR sort gate)” value is “high polyreactivity”.

In the case of “QVQLVESGGRLVQAGGSLRLSCAASGSIFYDNAMGWYRQAPGKERELVAVITVSGDSTYYADSVKGRFTISRDNAKNTVYLQMNSLKPEDTAVYYCNTDAISGSHFWRYITFGYLDDYWGQGTQVTVSS”, the “polyreactivity (PSR sort gate)” value is “low polyreactivity”. To “QVQLVESGGRLVQAGGSLRLSCAASGSIFYYNVMGWYRQAPGKERELVAAIDIDGSTYYADSVKGRFTISRDNAKNTVYLQMNSLKPEDTAVYYCAADVHTPALYTYAAGDYWGQGTQVTVSS” belongs “low polyreactivity”; to “QVQLVESGGRLVQAGGSLRLSCAASGSIFYYYAMGWYRQAPGKERELVAAINGGDTYYADSVKGRFTISRDNAKNTVYLQMNSLKPEDTAVYYCAAEGVTVEWDYDYLGQGTQVTVSS”, “low polyreactivity”; to “QVQLVESGGRLVQAGGSLRLSCAASGSTFGWNAMGWYRQAPGKETELVAAISRSGGRTYYADSVKGRFTISRDNANNTVYLQMISLKPEVTAVYYCAADRSTTGGLRGYWGQGTQVTVSS”, “high polyreactivity”.

As for “QVQLVESGGRLVQAGGSLRLSCAASGSTFIQNAMGWSRQAPGKDRELVAAITSGGGTNYADSVKGRFTISRDNAKNTVYLQMNSLKPEDTAVYYCAAEPFNYDDFWFGWEYLYDYWGQATQVTVSS”, the “polyreactivity (PSR sort gate)” value is given as “low polyreactivity”. With “QVQLVESGGRLVQAGGSLRLSCAASGSTFTLYAMGWYRQAPGKERELVAAITWRGGSTFYADSVKGRFTISRDNAKNSVYLQMNSLKPEDTAVYYCAADYYSYVVGRIYYWGQGTQVNVSS”, the “polyreactivity (PSR sort gate)” value is “high polyreactivity”. The entry for “QVQLVESGGRLVQAGGSLRLSCAASGSTFTVYAMGWYRQAPGKESELVAVITGSGGSTYYADSVKGRFTISRDNAKNTVYLQINSLKPEDTAVYYCAKEPGENWTVSWRDFDYWGQGTQVTVSS” is “low polyreactivity”; for “QVQLVESGGRLVQAGGSLRLSCAASGSTFYTNAMGWYRQSPGKEMELVAAITSNGDSTYYADSVKGRFTISRDNAKNTVYLQMNSLKPEDTAVYYCAAREFYGGYDNNYDYWGQGTQVTVSS” it is “low polyreactivity”; for “QVQLVESGGRLVQAGGSLRLSCAASGSTIYPNAMGWYRPAPGTERELVAGITTIGGSTYYADSVKGRFTISRDNAKNTVYLQMNSLKPEDTAVYYCAARWTFSTWIGFDYWGQGTQVTVSS” it is “low polyreactivity”. In the case of “QVQLVESGGRLVQAGGSLRLSCAASGSTSTLYAMGWYRQAPGKERELVAAISKSGGRTYYADSVKGRFTISRDNAKNTVYLQMNSLKPEDTAVYYCNTVPGRYRTFDYWGQGTQVTVSS”, the “polyreactivity (PSR sort gate)” value is on record as “high polyreactivity”. With “QVQLVESGGRLVQAGGSLRLSCAASGTFDLSAMGWYSQAPGKERELVAAITYRGDTTYYADSVKGRFTISRDNAKNTVYLQMNSMKPEDTAVYYCAAEWYYQFSSWYDYWGQGSQVTVSS”, the “polyreactivity (PSR sort gate)” value is given as “high polyreactivity”. With “QVQLVESGGRLVQAGGSLRLSCAASVITFLGNAMGWYRQAPGKERELVAAISASGGRTYYADSVKGRFTISRDNAKNTVYLLMNSLKPEDTAVYYCAAASKPWYYYWGQGTQVTVSS”, the “polyreactivity (PSR sort gate)” value is given as “high polyreactivity”. Consider “QVQLVESGGRLVQAGGSLRLSCAAYGSTFQVNAMGWYRQAPGKERELVAAISRGGGSTYYADSVKGRFTISRDNAKNTVYLQMNSLKPEETAVYYCAAVYYRRISQGDTQTYYQYNYWGQGTQVTVSS”, for which the “polyreactivity (PSR sort gate)” value is reported as “high polyreactivity”. To “QVQLVESGGRLVQAGGSLRLSCAPSGFIFGYYAMGWYRQAPGKERELVAAISPSGGRTYYADSVKGRFTISRDNAKITVFLQMNSLKPEDTAVYYCAAEYAYSLDPEEDYWGQGTQVTVSS” belongs “high polyreactivity”; to “QVQLVESGGRLVQAGGSLRLSCDPSGRTFWYYAMGWYRQAPGKERELVASISLSGSRTNYADSVKGRFTISRDNAKNTVYLQMNSLKPEDTAVYYCAADNFRQFGEYDYWGQGTQVTLSS”, “low polyreactivity”; to “QVQLVESGGRLVQAGGSLRLSCSASGFTLIHYAMGWYRQAHGKERELVAGITTSGGSTYYADSVKGRFTISRDNAKNTVYLQMNSLKPEDTAFYYCAAGSTTGQTGKVGYWGQGTQVTVSS”, “high polyreactivity”. Take “QVQLVESGGRLVQAGGSLRLSCSASGSTFRRNAMGWYRQAPGKERELVAAISWSSTRTYYADSVKGRFTISRDNAKNTVYLQMNSLKPEDTAVYYCAADSYGGGFQLYSYVSGLYYWGEGTQVTVSS”: the “polyreactivity (PSR sort gate)” value is listed as “high polyreactivity”.
